One molecule from patent WO2017061602A1 (dated 2017) can be followed below.

Assay [1] has as its target T1, extracellular domain human CD147-His (human, UniProt P35613 140-323).
T1 construct: Made in FreeStyle-293F cells, purified on His-Trap HP; also called extracellular domain CD147-His; human CD147 extracellular domain antigen
T1 sequence: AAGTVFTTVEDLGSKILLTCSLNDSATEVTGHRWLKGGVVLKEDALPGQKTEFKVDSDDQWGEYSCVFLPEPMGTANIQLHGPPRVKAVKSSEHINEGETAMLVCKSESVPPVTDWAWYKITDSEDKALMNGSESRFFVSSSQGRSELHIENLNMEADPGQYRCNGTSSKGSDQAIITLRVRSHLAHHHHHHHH
Nature of the assay: ELISA, extracellular domain human CD147-His on the plate. On the technique in general: An ELISA detects its analyte on a solid surface through an enzyme-linked reagent.

The target in assay [2] is T2, extracellular domain cynomolgus monkey CD147-His (cynomolgus monkey).
T2 construct: Made in FreeStyle-293F cells, purified on His-Trap HP; also called monkey extracellular domain CD147-His; cynomolgus monkey CD147 extracellular domain antigen
T2 chain: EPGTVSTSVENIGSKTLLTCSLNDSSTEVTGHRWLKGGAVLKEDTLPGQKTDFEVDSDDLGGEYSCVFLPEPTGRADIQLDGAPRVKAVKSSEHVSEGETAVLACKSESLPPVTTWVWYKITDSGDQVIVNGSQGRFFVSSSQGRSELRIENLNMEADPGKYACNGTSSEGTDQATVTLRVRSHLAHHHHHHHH
In words: ELISA, extracellular domain cynomolgus monkey CD147-His on the plate.

B1: HAb18 (antibody, V domains shown)
VH: EVKLEESGGGLVQPGGSMKLSCVASGFTFSDAWMDWVRQSPEKGLEWVAEIRSKANNHAPYYTESVKGRFTISRDDSKSIIYLQMNNLRAEDTGIYYCTRDSTATHWGQGTLVTVSA
VL: SIVMTQTPTFLVVSAGDRVTITCKASQSVINDVAWYQQKPGQSPKLLIFYASNRNTGVPDRFTGSGYGTDFTFTISTVQAEDLAVYFCQQDYSPPFTFGSGTKLEIK
notes: also called HAb18G; target antibody HAb18
As for B1, the binding result in assay [1] is listed as “binds”; in assay [2], “no binding”.
